B1: hIFNγRα(33-239).TG.hIFNγRβ.SG.hFc (Fc fusion, not shown: a dimerising Fc or GST)
chain: TNVTIESYNMNPIVYWEYQIMPQVPVFTVEVKNYGVKNSEWIDACINISHHYCNISDHVGDPSNSLWVRVKARVGQKESAYAKSEEFAVCRDGKIGPPKLDIRKEEKQIMIDIFHPSVFVNGDEQEVDYDPETTCYIRVYNVYVRMNGSEIQYKILTQKEDDCDEIQCQLAIPVSSLNSQYCVSAEGVLHVWGVTTEKSKEVCITIFTGSQLPAPQHPKIRLYNAEQVLSWEPVALSNSTRPVVYQVQFKYTDSKWFTADIMSIGVNCTQITATECDFTAASPSAGFPMDFNVTLRLRAELGALHSAWVTMPWFQHYRNVTVGPPENIEVTPGEGSLIIRFSSPFDIADTSTAFFCYYVHYWEKGGIQQVKGPFRSNSISLDNLKPSRVYCLQVQAQLLWNKSNIFRVGHLSNISCYETMADASTELQSG
B2: hIFNγRα(23-239).SG.hFc (Fc fusion, not shown: a dimerising Fc or GST)
chain: DLGPSSVPTPTNVTIESYNMNPIVYWEYQIMPQVPVFTVEVKNYGVKNSEWIDACINISHHYCNISDHVGDPSNSLWVRVKARVGQKESAYAKSEEFAVCRDGKIGPPKLDIRKEEKQIMIDIFHPSVFVNGDEQEVDYDPETTCYIRVYNVYVRMNGSEIQYKILTQKEDDCDEIQCQLAIPVSSLNSQYCVSAEGVLHVWGVTTEKSKEVCITIFSG
B3: hIFNγRα(23-239).TG.hFc.ARA.hIFNγRβ (Fc fusion, not shown: a dimerising Fc or GST)
chain (part 1 of 2): B2 chain with S218T
chain (part 2 of 2): ARASQLPAPQHPKIRLYNAEQVLSWEPVALSNSTRPVVYQVQFKYTDSKWFTADIMSIGVNCTQITATECDFTAASPSAGFPMDFNVTLRLRAELGALHSAWVTMPWFQHYRNVTVGPPENIEVTPGEGSLIIRFSSPFDIADTSTAFFCYYVHYWEKGGIQQVKGPFRSNSISLDNLKPSRVYCLQVQAQLLWNKSNIFRVGHLSNISCYETMADASTELQ
B4: hIFNγRα(24-239).SG.hFc (Fc fusion, not shown: a dimerising Fc or GST)
chain: LGPSSVPTPTNVTIESYNMNPIVYWEYQIMPQVPVFTVEVKNYGVKNSEWIDACINISHHYCNISDHVGDPSNSLWVRVKARVGQKESAYAKSEEFAVCRDGKIGPPKLDIRKEEKQIMIDIFHPSVFVNGDEQEVDYDPETTCYIRVYNVYVRMNGSEIQYKILTQKEDDCDEIQCQLAIPVSSLNSQYCVSAEGVLHVWGVTTEKSKEVCITIFSG
B5: hIFNγRα(24-239).TG.hFc.ARA.hIFNγRβ (Fc fusion, not shown: a dimerising Fc or GST)
chain (part 1 of 2): B4 chain with S217T
chain (part 2 of 2): B3 chain (part 2 of 2)
B6: hIFNγRα(24-239).TG.hIFNγRβ.SG.hFc (Fc fusion, not shown: a dimerising Fc or GST)
chain: LGPSSVPTPTNVTIESYNMNPIVYWEYQIMPQVPVFTVEVKNYGVKNSEWIDACINISHHYCNISDHVGDPSNSLWVRVKARVGQKESAYAKSEEFAVCRDGKIGPPKLDIRKEEKQIMIDIFHPSVFVNGDEQEVDYDPETTCYIRVYNVYVRMNGSEIQYKILTQKEDDCDEIQCQLAIPVSSLNSQYCVSAEGVLHVWGVTTEKSKEVCITIFTGSQLPAPQHPKIRLYNAEQVLSWEPVALSNSTRPVVYQVQFKYTDSKWFTADIMSIGVNCTQITATECDFTAASPSAGFPMDFNVTLRLRAELGALHSAWVTMPWFQHYRNVTVGPPENIEVTPGEGSLIIRFSSPFDIADTSTAFFCYYVHYWEKGGIQQVKGPFRSNSISLDNLKPSRVYCLQVQAQLLWNKSNIFRVGHLSNISCYETMADASTELQSG
B7: hIFNγRα(23-239).TG.hIFNγRβ.SG.hFc (Fc fusion, not shown: a dimerising Fc or GST)
chain: DLGPSSVPTPTNVTIESYNMNPIVYWEYQIMPQVPVFTVEVKNYGVKNSEWIDACINISHHYCNISDHVGDPSNSLWVRVKARVGQKESAYAKSEEFAVCRDGKIGPPKLDIRKEEKQIMIDIFHPSVFVNGDEQEVDYDPETTCYIRVYNVYVRMNGSEIQYKILTQKEDDCDEIQCQLAIPVSSLNSQYCVSAEGVLHVWGVTTEKSKEVCITIFTGSQLPAPQHPKIRLYNAEQVLSWEPVALSNSTRPVVYQVQFKYTDSKWFTADIMSIGVNCTQITATECDFTAASPSAGFPMDFNVTLRLRAELGALHSAWVTMPWFQHYRNVTVGPPENIEVTPGEGSLIIRFSSPFDIADTSTAFFCYYVHYWEKGGIQQVKGPFRSNSISLDNLKPSRVYCLQVQAQLLWNKSNIFRVGHLSNISCYETMADASTELQSG

Residue numbers refer to the chain shown, from its start.

Sequence of human interferon γ (human) (P01579 24-166 limits assumed): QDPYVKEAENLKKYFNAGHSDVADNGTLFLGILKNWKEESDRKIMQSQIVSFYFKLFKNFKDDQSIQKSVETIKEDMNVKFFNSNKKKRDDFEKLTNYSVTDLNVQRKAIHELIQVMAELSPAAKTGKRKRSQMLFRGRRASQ

The assay has as its target human interferon γ (human) (UniProt P01579). The assay can be described thus: cell-based or functional assay.
B1 came in with an IC50 (M), GAS-luciferase bioassay in HEK293 cells of 1.3e-08 M and an IC50 (M), ISRE-luciferase bioassay in HEK293 cells of 2.4e-07 M.

Turning to B2, the IC50 (M), GAS-luciferase bioassay in HEK293 cells turned out to be 4.6e-09 M and the IC50 (M), ISRE-luciferase bioassay in HEK293 cells came to 2.57e-09 M.

B3 gave an IC50 (M), GAS-luciferase bioassay in HEK293 cells of 1e-09 M and an IC50 (M), ISRE-luciferase bioassay in HEK293 cells of 7.9e-10 M.

In the case of B4, the IC50 (M), GAS-luciferase bioassay in HEK293 cells worked out at 2.1e-08 M and the IC50 (M), ISRE-luciferase bioassay in HEK293 cells came to 1.2e-08 M.

Turning to B5, the IC50 (M), GAS-luciferase bioassay in HEK293 cells turned out to be 1.1e-08 M and the IC50 (M), ISRE-luciferase bioassay in HEK293 cells is 6e-09 M.

In the case of B6, the IC50 (M), GAS-luciferase bioassay in HEK293 cells was 3.2e-09 M and the IC50 (M), ISRE-luciferase bioassay in HEK293 cells was 1.3e-09 M.

On to B7, for which the IC50 (M), GAS-luciferase bioassay in HEK293 cells came out at 1.9e-10 M and the IC50 (M), ISRE-luciferase bioassay in HEK293 cells was 5.3e-11 M.

The values above are taken from patent US20070020283A1.
